The values that follow come from paper doi:10.1101/2020.08.14.246132 (bioRxiv, 2020).

The target in this assay is DPP9, short isoform (His-TEV-DPP9), co-expressed with NLRP1ΔΔ for cryo-EM (human, UniProt Q86TI2-1 1-863). Nature of the assay: cryo-EM structure.
Sequence of DPP9, short isoform (His-TEV-DPP9), co-expressed with NLRP1ΔΔ for cryo-EM (Q86TI2 whole entry, stated change not applied, canonical isoform): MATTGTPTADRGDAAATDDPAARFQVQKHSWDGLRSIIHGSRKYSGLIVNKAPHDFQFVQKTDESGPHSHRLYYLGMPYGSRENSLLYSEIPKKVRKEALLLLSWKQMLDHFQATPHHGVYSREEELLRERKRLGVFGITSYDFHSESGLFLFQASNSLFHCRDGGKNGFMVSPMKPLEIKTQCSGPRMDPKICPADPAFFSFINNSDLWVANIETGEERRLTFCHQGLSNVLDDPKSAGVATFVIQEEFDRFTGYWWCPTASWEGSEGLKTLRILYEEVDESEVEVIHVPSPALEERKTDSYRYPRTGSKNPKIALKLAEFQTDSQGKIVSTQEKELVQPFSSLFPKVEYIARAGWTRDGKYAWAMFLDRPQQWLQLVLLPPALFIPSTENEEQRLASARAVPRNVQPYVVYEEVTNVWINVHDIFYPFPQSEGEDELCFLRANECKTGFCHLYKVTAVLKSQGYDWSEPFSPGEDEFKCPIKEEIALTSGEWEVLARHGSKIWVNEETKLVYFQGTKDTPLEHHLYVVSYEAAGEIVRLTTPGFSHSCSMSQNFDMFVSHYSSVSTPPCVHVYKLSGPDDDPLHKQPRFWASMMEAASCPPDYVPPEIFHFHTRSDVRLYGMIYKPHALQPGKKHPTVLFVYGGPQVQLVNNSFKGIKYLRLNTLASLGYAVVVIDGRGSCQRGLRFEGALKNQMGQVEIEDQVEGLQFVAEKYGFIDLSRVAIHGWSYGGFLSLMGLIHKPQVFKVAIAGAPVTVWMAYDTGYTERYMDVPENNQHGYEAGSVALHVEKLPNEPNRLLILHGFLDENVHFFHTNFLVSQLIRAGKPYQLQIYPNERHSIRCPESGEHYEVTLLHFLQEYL

B1: NLRP1-CT freed from NLRP1ΔΔ (UPA subdomain only), molecule B of the NLRP1^A-NLRP1^B-DPP9 ternary complex (domain or fragment, human, UniProt Q9C000-1 1213-1364, looked up)
chain: SPLGVLLKMIHNALRFIPVTSVVLLYHRVHPEEVTFHLYLIPSDCSIRKAIDDLEMKFQFVRIHKPPPLTPLYMGCRYTVSGSGSGMLEILPKELELCYRSPGEDQLFSEFYVGHLGSGIRLQVKDKKDETLVWEALVKPGDLMPATTLIPP
Consider B1, for which the binding result was “binds”.
